Residue numbers refer to the chain shown, from its start. In names and notes the source's numbering stands. Several values for one entry are separate records, joined by “and”; a condition that tells them apart may be missing. Equal values may be shown once.
B1: Bri2 BRICHOS domain (residues 113-231 of full-length human Bri2), wild type (domain or fragment, UniProt Q9Y287 113-231, looked up)
chain: QTIEENIKIFEEEEVEFISVPVPEFADSDPANIVHDFNKKLTAYLDLNLDKCYVIPLNTSIVMPPRNLLELLINIKAGTYLPQSYLIHEHMVITDRIENIDHLGFFIYRLCHDKETYKL
notes: Bri2 (integral membrane protein 2B), human, BRICHOS domain, residues 113-231 of full-length human Bri2; In the monomer Cys164 and Cys223 form an intramolecular disulfide; dimers and oligomers have intermolecular disulfides; also called Bri2 BRICHOS monomers; Bri2 BRICHOS dimers; source: E. coli, expressed and purified as previously described (monomer, dimer and oligomer species isolated)
B2: Bri2 BRICHOS Thr to Trp (T206W) mutant (domain or fragment, human, UniProt Q9Y287 113-231, looked up)
chain: B1 chain with T94W
notes: Bri2 (integral membrane protein 2B), human, BRICHOS domain, residues 113-231 of full-length human Bri2, T206W; also called Thr to Trp Bri2 BRICHOS mutant; source: E. coli, expressed and purified as previously described
B3: Bri2 BRICHOScys mutant C164S without NT* tag (Cys223-Cys223 dimer) (domain or fragment, human, UniProt Q9Y287 113-231, looked up)
chain: B1 chain with C52S
modifications: intermolecular Cys223-Cys223 homodisulfide
notes: Bri2 (integral membrane protein 2B), human, BRICHOS domain, residues 113-231 of full-length human Bri2, C164S; also called Cys223 dimers; source: E. coli, dimer fraction purified without NT* solubility tag
B4: NT*-Bri2 BRICHOScys mutant C223S (NT*-Bri2 BRICHOScys 164-164 dimer) (domain or fragment, human, UniProt Q9Y287 113-231, looked up)
chain: B1 chain with C111S
modifications: intermolecular Cys164-Cys164 homodisulfide
notes: Bri2 (integral membrane protein 2B), human, BRICHOS domain, residues 113-231 of full-length human Bri2, C223S; NT* fusion kept as a means to tell the species apart by size; also called Cys164 dimers; source: E. coli, dimer fraction purified with NT* solubility tag
B5: NT*-Bri2 BRICHOScys mutant C164S (NT*-Bri2 BRICHOScys 223-223 dimer) (domain or fragment, human, UniProt Q9Y287 113-231, looked up)
chain: B1 chain with C52S
modifications: intermolecular Cys223-Cys223 homodisulfide
notes: Bri2 (integral membrane protein 2B), human, BRICHOS domain, residues 113-231 of full-length human Bri2, C164S; NT* fusion kept as a means to tell the species apart by size; also called Cys223 dimers; source: E. coli, dimer fraction purified with NT* solubility tag

How the values were obtained:
[1] = biological target: the molecule itself; assay: SEC; Bri2 BRICHOS monomers, non-incubated or incubated at 37°C without reductant; 20 mM phosphate buffer, 0.2 mM EDTA, pH 8; monomer to dimers and tetramers
[2] = biological target: the molecule itself; assay: other fluorescence titration; apparent; tryptophan fluorescence emission change upon dimer formation of the T206W mutant, excitation 280 nm, emission 300-400 nm, 96 well plate; single exponential fit; monomer to dimer/assembly
[3] = biological target: B5; assay: non-reducing SDS-PAGE and Western blot; dimer fractions of Bri2 BRICHOScys mutants with or without NT* mixed 1:1 at 10 μM final protein, 20 mM phosphate buffer pH 8, 0.2 mM EDTA, 0.02% NaN3, 2.5x thrombin inhibitor, 37°C overnight; mixed disulfide band; settings: both partners purified
[4] = biological target: the molecule itself; assay: non-reducing SDS-PAGE and Western blot; dimer fractions of the NT*-Bri2 BRICHOScys mutants under non-reducing conditions

Binder: B1
- stoichiometry N [1]: 2 and 4

Binder: B2
- Kd [2]: 1000 ± 200 nM

Binder: B3
- binding result [3]: binds

Binder: B4
- binding result [4]: binds

Binder: B5
- binding result [4]: binds
